Test results as given in patent US20060211022A1.

Target: NGFR/EPOR hybrid receptor NECD (NGFR/EPOR chimera D) on 32D/NECDsc-14 cells (human; mouse)
Test: cell-based or functional assay

Sequence of NGF (P01138 122-241): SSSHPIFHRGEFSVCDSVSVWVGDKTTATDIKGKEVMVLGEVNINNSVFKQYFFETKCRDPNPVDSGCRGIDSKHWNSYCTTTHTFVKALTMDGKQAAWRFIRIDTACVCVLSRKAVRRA
Sequence of NGFR/EPOR hybrid receptor NECD (NGFR/EPOR chimera D) on 32D/NECDsc-14 cells (human; mouse) (chain, as listed by the source mutant limits assumed): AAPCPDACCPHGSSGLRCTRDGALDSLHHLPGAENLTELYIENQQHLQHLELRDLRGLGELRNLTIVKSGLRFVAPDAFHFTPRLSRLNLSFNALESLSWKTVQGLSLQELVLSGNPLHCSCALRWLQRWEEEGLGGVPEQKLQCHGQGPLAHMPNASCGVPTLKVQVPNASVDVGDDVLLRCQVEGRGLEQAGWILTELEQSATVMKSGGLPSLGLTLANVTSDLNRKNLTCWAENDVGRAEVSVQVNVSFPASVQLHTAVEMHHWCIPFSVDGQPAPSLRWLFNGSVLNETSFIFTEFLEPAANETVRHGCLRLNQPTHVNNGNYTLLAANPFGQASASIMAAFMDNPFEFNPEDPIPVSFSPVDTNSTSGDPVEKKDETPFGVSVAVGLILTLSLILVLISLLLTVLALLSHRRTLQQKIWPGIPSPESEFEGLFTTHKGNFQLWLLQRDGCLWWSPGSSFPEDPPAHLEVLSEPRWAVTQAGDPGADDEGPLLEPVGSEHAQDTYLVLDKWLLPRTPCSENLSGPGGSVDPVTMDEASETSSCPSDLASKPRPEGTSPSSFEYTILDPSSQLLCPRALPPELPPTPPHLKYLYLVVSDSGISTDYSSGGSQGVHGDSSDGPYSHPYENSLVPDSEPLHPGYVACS

- NGF dose response in serum matrix, 0.02 ng/mL NGF, 1% human serum: 947
- NGF dose response in serum matrix, 0.02 ng/mL NGF, 2% rat serum: 1190
- NGF dose response in serum matrix, 0.02 ng/mL NGF, 5% cyno serum: 2180
- NGF dose response in serum matrix, 0.02 ng/mL NGF, no serum: 595
- NGF dose response in serum matrix, 0.07 ng/mL NGF, 1% human serum: 1480
- NGF dose response in serum matrix, 0.07 ng/mL NGF, 2% rat serum: 3520
- NGF dose response in serum matrix, 0.07 ng/mL NGF, 5% cyno serum: 5760
- NGF dose response in serum matrix, 0.07 ng/mL NGF, no serum: 1390
- NGF dose response in serum matrix, 0.21 ng/mL NGF, 1% human serum: 5830
- NGF dose response in serum matrix, 0.21 ng/mL NGF, 2% rat serum: 12000
- NGF dose response in serum matrix, 0.21 ng/mL NGF, 5% cyno serum: 15800
- NGF dose response in serum matrix, 0.21 ng/mL NGF, no serum: 5420
- NGF dose response in serum matrix, 0.62 ng/mL NGF, 1% human serum: 13400
- NGF dose response in serum matrix, 0.62 ng/mL NGF, 2% rat serum: 29400
- NGF dose response in serum matrix, 0.62 ng/mL NGF, 5% cyno serum: 32500
- NGF dose response in serum matrix, 0.62 ng/mL NGF, no serum: 17100
- NGF dose response in serum matrix, 1.85 ng/mL NGF, 1% human serum: 19500
- NGF dose response in serum matrix, 1.85 ng/mL NGF, 2% rat serum: 37700
- NGF dose response in serum matrix, 1.85 ng/mL NGF, 5% cyno serum: 43100
- NGF dose response in serum matrix, 1.85 ng/mL NGF, no serum: 27400
- NGF dose response in serum matrix, 5.56 ng/mL NGF, 1% human serum: 22200
- NGF dose response in serum matrix, 5.56 ng/mL NGF, 2% rat serum: 43400
- NGF dose response in serum matrix, 5.56 ng/mL NGF, 5% cyno serum: 52200
- NGF dose response in serum matrix, 5.56 ng/mL NGF, no serum: 35200
- NGF dose response in serum matrix, 16.67 ng/mL NGF, 1% human serum: 24600
- NGF dose response in serum matrix, 16.67 ng/mL NGF, 2% rat serum: 42400
- NGF dose response in serum matrix, 16.67 ng/mL NGF, 5% cyno serum: 51800
- NGF dose response in serum matrix, 16.67 ng/mL NGF, no serum: 39700
- NGF dose response in serum matrix, 50.00 ng/mL NGF, 1% human serum: 19700
- NGF dose response in serum matrix, 50.00 ng/mL NGF, 2% rat serum: 46900
- NGF dose response in serum matrix, 50.00 ng/mL NGF, 5% cyno serum: 56400
- NGF dose response in serum matrix, 50.00 ng/mL NGF, no serum: 41000
- NGF dose response in serum matrix, 150.00 ng/mL NGF, 1% human serum: 18600
- NGF dose response in serum matrix, 150.00 ng/mL NGF, 2% rat serum: 49500
- NGF dose response in serum matrix, 150.00 ng/mL NGF, 5% cyno serum: 62100
- NGF dose response in serum matrix, 150.00 ng/mL NGF, no serum: 44100
- [3H]-thymidine counts, NECDsc-14 NGF-dependent, 0.02 ng/ml: 1960 counts
- [3H]-thymidine counts, NECDsc-14 NGF-dependent, 0.07 ng/ml: 4690 counts
- [3H]-thymidine counts, NECDsc-14 NGF-dependent, 0.21 ng/ml: 8030 counts
- [3H]-thymidine counts, NECDsc-14 NGF-dependent, 0.62 ng/ml: 16800 counts
- [3H]-thymidine counts, NECDsc-14 NGF-dependent, 1.85 ng/ml: 22400 counts
- [3H]-thymidine counts, NECDsc-14 NGF-dependent, 5.56 ng/ml: 24200 counts
- [3H]-thymidine counts, NECDsc-14 NGF-dependent, 16.67 ng/ml: 22900 counts
- [3H]-thymidine counts, NECDsc-14 NGF-dependent, 50.00 ng/ml: 21600 counts
- [3H]-thymidine counts, NECDsc-14 NGF-dependent, 150.00 ng/ml: 20900 counts
Substance: NGF (ligand)
